# Laboratory results published in patent US20250109201A1 (AGENUS, published 2025).
# Changes are numbered by the printed parent chain.
# B1: BA212 (antibody, human IgG1, kappa, N297A, V domains shown)
# VH: QVQLVQSGAEVKKPGASVKVSCKASGYTFNRYYMHWVRQAPGQGLEWMGWINPYTGGTNYAQKFQGRVTMTRDTSISTAYMELSRLRSDDTAVYYCASKQPSSDYWGQGTLVTVSS
# VL: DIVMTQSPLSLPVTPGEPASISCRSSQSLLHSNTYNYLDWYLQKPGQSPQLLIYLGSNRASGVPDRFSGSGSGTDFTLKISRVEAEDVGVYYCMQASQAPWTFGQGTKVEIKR
# B2: BA216 (antibody, human IgG1, kappa, N297A, V domains shown)
# VH: B1 VH
# VL: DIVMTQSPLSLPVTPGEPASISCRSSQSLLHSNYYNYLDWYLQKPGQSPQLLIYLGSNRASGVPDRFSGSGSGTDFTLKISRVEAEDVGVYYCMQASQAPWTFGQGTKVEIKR
# B3: BA213 (antibody, human IgG1, kappa, N297A, V domains shown)
# VH: B1 VH
# VL: not shown
# B4: BA217 (antibody, human IgG2, kappa)
# heavy: QVQLVQSGAEVKKPGASVKVSCKASGYTFNRYYMHWVRQAPGQGLEWMGWINPYTGGTNYAQKFQGRVTMTRDTSISTAYMELSRLRSDDTAVYYCASKQPSSDYWGQGTLVTVSSASTKGPSVFPLAPCSRSTSESTAALGCLVKDYFPEPVTVSWNSGALTSGVHTFPAVLQSSGLYSLSSVVTVPSSNFGTQTYTCNVDHKPSNTKVDKTVERKCCVECPPCPAPPVAGPSVFLFPPKPKDTLMISRTPEVTCVVVDVSHEDPEVQFNWYVDGVEVHNAKTKPREEQFNSTFRVVSVLTVVHQDWLNGKEYKCKVSNKGLPAPIEKTISKTKGQPREPQVYTLPPSREEMTKNQVSLTCLVKGFYPSDIAVEWESNGQPENNYKTTPPMLDSDGSFFLYSKLTVDKSRWQQGNVFSCSVMHEALHNHYTQKSLSLSPGK
# light: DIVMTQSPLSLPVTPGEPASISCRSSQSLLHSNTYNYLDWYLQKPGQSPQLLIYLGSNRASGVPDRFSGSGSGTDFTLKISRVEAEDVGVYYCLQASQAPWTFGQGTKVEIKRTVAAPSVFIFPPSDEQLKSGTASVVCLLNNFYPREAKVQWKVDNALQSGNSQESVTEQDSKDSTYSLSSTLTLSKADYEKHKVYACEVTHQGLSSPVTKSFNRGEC
# B5: BA219 (antibody, human IgG2, kappa)
# heavy: B4 heavy with C130S
# light: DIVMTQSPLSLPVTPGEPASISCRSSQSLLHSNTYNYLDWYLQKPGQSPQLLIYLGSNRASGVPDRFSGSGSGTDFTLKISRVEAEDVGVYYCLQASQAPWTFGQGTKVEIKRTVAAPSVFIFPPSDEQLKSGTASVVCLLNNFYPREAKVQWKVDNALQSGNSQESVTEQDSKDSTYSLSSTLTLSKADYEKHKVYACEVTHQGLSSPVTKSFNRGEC
# B6: BA220 (antibody, human IgG2, kappa)
# heavy: B4 heavy with C130S
# light: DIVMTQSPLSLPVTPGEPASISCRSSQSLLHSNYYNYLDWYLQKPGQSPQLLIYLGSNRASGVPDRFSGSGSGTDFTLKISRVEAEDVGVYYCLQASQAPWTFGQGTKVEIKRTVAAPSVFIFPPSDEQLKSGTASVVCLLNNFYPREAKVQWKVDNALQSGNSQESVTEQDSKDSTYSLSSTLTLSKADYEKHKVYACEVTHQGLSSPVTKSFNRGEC
# B7: BA218 (antibody, human IgG2, kappa)
# heavy: B4 heavy
# light: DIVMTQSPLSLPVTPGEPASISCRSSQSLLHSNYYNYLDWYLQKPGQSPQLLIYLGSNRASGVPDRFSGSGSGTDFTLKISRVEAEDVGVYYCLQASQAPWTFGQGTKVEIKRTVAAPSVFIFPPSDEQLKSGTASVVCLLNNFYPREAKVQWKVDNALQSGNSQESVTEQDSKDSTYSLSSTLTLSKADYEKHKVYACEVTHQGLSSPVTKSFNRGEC
# B8: BA246 (antibody, human IgG2, kappa)
# heavy: B4 heavy
# light: not shown
# B9: BA247 (antibody, human IgG2, kappa)
# heavy: B4 heavy with C130S
# light: not shown
# Target: T1, ECD-His tagged human ILT2 haplotype PE01 (human, UniProt Q8NHL6 24-458)
# T1 construct: also called Human ILT2 PE01 ECD; LILRB1/ILT2 PE01; not shown: His tag
# Assay: SPR, captured antibody, ILT2 ECD-His analyte
# Method: (§1) The binding affinity of anti-ILT2 antibody variants with IgG1 N297A constant regions to ECD-His tagged human ILT2 haplotypes PE01, PE02, PE03 (see Table 1) was assessed by surface plasmon resonance (SPR).
# (§2) Briefly, SPR experiments were performed using a Biacore T200 instrument, and the association rate (Kₐ), dissociation rate (Kd), and dissociation constant (KD) were calculated from each experiment using a 1:1 binding model with Biacore™ T200 Evaluation Software. Capture of antibodies from the Human Fab Capture kit (28958325, GE Healthcare) to the Series S CM5 sensor chip (29149603, GE Healthcare) was performed using the immobilization wizard for amine coupling from the Biacore™ control panel and following the manufacturer's recommendations included with the kit.
# (§3) Approximately 3 μg/mL of tested anti-ILT2 antibodies and controls diluted in a running buffer (10 mM HEPES, 150 mM NaCl, 3 mM EDTA, and 0.05% surfactant P20) were captured in individual flow cells of previously prepared anti Human Fab CM5 chip, keeping a single flow cell as a reference. Antibodies were captured using a 30 sec injection at a flow rate of 10 μL/min to reach about 150 resonance units (Rus). Human ILT2 ECD PE01 (diluted in the running buffer at the concentration of 30, 10, 3.3, 1.11, 0.37, 0.12 nM), and human ILT2 ECD PE02 and PE03 (diluted in the running buffer at the concentration of 33.3, 11.1, 3.7, 1.2, 0.41, 0.14 nM), were flowed over the chip surface at a flow rate of 30 μL/min with a 3-min association phase and a 10-min dissociation phase. The sensor chip was regenerated between cycles with a double 30-sec injection of 10 mM glycine, pH 2.1 at 30 μL/min followed by stabilization period of 60s. Sensorgrams were evaluated and fit to a simple Langmuir 1:1 interaction model using the global data analysis option of BIAevaluation 3.1 software. Data quality was verified by visually inspecting deviations and curve fitting, and by evaluating the parameters of Rₘₐₓ, Chi2, and Tc.
# T1 sequence (Q8NHL6 24-458): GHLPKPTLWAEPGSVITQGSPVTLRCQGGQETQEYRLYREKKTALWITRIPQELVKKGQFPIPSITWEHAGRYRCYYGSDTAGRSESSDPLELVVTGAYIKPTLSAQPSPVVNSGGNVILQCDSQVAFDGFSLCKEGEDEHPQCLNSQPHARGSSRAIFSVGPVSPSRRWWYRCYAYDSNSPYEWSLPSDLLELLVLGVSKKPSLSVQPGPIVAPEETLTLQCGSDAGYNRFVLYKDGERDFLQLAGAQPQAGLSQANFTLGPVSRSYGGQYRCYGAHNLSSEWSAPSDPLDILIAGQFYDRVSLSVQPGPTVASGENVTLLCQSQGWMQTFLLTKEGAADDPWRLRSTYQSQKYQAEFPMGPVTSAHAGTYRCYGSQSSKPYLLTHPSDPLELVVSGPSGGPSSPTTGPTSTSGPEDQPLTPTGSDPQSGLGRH
Kd [nM],koff [s⁻¹],kon [M⁻¹ s⁻¹],Binder
0.089,3.3e-06,37000,B1
0.185,6.7e-05,360000,B2
0.033,1.1e-05,320000,B3

# Target: T2, ECD-His tagged human ILT2 haplotype PE02 (human, UniProt Q8NHL6 24-458)
# T2 construct: also called Human ILT2 PE02 ECD; not shown: His tag
# Assay: SPR, captured antibody, ILT2 ECD-His analyte
# Method: as §1, §2, §3
# T2 sequence (Q8NHL6 other isoform, or with tags, fused parts or gaps): as the sequence (Q8NHL6 24-458) above, with L45P, A70T, I119T, S132I counted along it
Kd [nM],koff [s⁻¹],kon [M⁻¹ s⁻¹],Binder
0.783,0.00021,270000,B1
0.617,0.00014,230000,B2
0.63,0.00015,230000,B3

# Target: T3, ECD-His tagged human ILT2 haplotype PE03 (human, UniProt Q8NHL6 24-458)
# T3 construct: also called Human ILT2 PE03 ECD (Sino biological, 16014-H08H); not shown: His tag
# Assay: SPR, captured antibody, ILT2 ECD-His analyte
# Method: as §1, §2, §3
# T3 sequence (Q8NHL6 other isoform, or with tags, fused parts or gaps): as the sequence (Q8NHL6 24-458) above, with L45P, I119T, S132I counted along it
Kd [nM],koff [s⁻¹],kon [M⁻¹ s⁻¹],Binder
0.875,0.0004,460000,B1
0.317,8.5e-05,270000,B2
0.149,7.5e-05,500000,B3

# Target: T4, human ILT2 extracellular and transmembrane domains expressed on CHO cells (human, UniProt Q8NHL6 24-482, limits assumed)
# T4 construct: domain: extracellular and transmembrane domains; which one is told under assay; also called CHO cells expressing human ILT2 (relatively low or relatively high level); CHO-ILT2 cells
# Assay: flow cytometry, CHO cells with low human ILT2
# Method: For the antibody binding assay, the cells were seeded in a 96-well U-bottom tissue culture plate at a density of 3×10⁵ cells per well in 25 μL of PBS supplemented with 0.5% BSA, 1 mM EDTA and 0.05% sodium azide (FACS Buffer). The cells were incubated for 30 minutes at 4° C. with 25 μL of a series dilution of anti-ILT2 antibodies or isotype control, at final concentrations ranging from 10 μg/mL to 0.2 ng/mL in FACS Buffer.
# After a 30-minute incubation in the dark at 4° C., the cells were washed twice with cold FACS Buffer, and the cells were analyzed by flow cytometry (BD LSR Fortessa Flow Cytometer). CHO cells were identified using a plot of forward scatter-area (FSC-A) versus side scatter area (SSC-A) and another plot of FSC-A versus forward scatter-height (FSC-H) for selection of single cells. Samples were analyzed by sequentially gating on the single cell population and plotting histograms representing the fluorescence in the PE channel. For each sample, mean fluorescence intensity (MFI) was calculated, and the data were plotted by GraphPad Prism software.
# T4 sequence (Q8NHL6 24-482 limits assumed): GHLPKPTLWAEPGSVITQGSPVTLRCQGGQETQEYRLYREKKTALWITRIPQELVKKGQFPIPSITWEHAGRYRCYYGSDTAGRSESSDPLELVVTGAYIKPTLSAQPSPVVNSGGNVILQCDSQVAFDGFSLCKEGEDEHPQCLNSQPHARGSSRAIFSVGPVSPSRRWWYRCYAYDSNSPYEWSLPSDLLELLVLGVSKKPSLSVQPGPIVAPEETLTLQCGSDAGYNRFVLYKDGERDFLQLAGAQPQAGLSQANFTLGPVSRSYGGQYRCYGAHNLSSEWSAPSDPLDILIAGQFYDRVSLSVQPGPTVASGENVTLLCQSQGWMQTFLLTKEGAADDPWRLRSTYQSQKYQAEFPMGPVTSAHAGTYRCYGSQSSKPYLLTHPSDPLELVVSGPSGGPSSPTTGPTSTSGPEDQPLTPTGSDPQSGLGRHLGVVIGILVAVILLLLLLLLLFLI
AUC,EC50 [µg/mL],Binder
15100,0.087,B1
14400,0.078,B2
13600,0.175,B3

# Target: T4, human ILT2 extracellular and …
# Assay: flow cytometry, CHO cells with high human ILT2
# Method: For the antibody binding assay, the cells were seeded in a 96-well U-bottom tissue culture plate at a density of 3×10⁵ cells per well in 25 μL of PBS supplemented with 0.5% BSA, 1 mM EDTA and 0.05% sodium azide (FACS Buffer). The cells were incubated for 30 minutes at 4° C. with […] of a series dilution of anti-ILT2 antibodies or isotype control at concentrations from 10 μg/mL to 2.4 ng/mL in FACS Buffer.
# After a 30-minute incubation in the dark at 4° C., the cells were washed twice with cold FACS Buffer, and the cells were analyzed by flow cytometry (BD LSR Fortessa Flow Cytometer). CHO-ILT2 cells were identified and MFI was calculated as above.
AUC,EC50 [µg/mL],Binder
264000,0.248,B4
307000,0.183,B5
305000,0.282,B6
295000,0.227,B7

# Target: T5, full-length ILT2 expressed on Jurkat cells (human, UniProt Q8NHL6 24-650)
# T5 construct: whole, on cells; The Jurkat line also carries FcgRIIIa and an NFAT-luciferase reporter (Promega/G7102); also called Jurkat cells expressing human ILT2; ILT2-expressing Jurkat reporter cells
# Assay: flow cytometry, Jurkat cells expressing human ILT2
# T5 sequence (Q8NHL6 24-650): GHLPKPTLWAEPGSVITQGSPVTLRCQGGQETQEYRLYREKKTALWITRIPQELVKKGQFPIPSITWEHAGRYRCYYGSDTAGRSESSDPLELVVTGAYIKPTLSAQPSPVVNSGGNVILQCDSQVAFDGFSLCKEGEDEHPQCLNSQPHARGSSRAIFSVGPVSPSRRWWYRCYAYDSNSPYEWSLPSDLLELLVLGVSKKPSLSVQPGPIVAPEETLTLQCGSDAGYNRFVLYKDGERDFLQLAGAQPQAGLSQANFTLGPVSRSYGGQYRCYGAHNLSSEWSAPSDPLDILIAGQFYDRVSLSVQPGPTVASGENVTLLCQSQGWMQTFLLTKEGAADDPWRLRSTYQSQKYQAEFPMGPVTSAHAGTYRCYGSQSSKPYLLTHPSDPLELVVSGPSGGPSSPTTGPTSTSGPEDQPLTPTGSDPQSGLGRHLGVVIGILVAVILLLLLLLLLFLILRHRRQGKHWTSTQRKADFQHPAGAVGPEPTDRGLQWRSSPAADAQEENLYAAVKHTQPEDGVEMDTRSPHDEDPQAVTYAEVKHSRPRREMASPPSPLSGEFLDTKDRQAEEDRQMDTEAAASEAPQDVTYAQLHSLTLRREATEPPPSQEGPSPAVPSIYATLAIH
AUC,EC50 [µg/mL],Binder
222000,0.057,B1
199000,0.07,B2
189000,0.11,B3

# Target: T1, ECD-His tagged human ILT2 haplotype PE01
# Assay: SPR, ILT2 PE01 ECD-His, average of two measurements
# Method: as §2
# Variants of irrelevant antibody VRC01 (with IgG1, IgG1 N297A, IgG4 S228P, IgG2, or IgG2 C127S constant regions) were used as negative isotype controls. The binding kinetics are shown in Table 5 as an average from two independent measurements.
Kd [nM],koff [s⁻¹],kon [M⁻¹ s⁻¹],Binder
0.17,5.4e-05,340000,B4
0.14,4.8e-05,350000,B5
0.14,5.7e-05,420000,B6
0.23,7.4e-05,330000,B8
0.31,9.7e-05,330000,B9
0.19,7e-05,390000,B7
